A short description of this data set: yeast display, Sf9 membrane polyspecificity reagent, FACS + sequencing; frameworks hold sequencing errors. The gist of the method: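 Polyreactivity labels are assigned by the sorting gate from which each nanobody was recovered. The gates were low and high (top ~1%), set on anti-HA fluorescence for expression and streptavidin fluorescence for reagent binding. Before sorting, galactose-induced (36–48 hours) yeast display cells were stained for 1 hour at 4 °C with 10% biotinylated, detergent-solubilized Sf9 membrane reagent.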
“QVQLVESGGGLVKAGGSLRLSCAASGSTFVGYAMGWYRQAPGKERELVADITWSGTNTYYADSVKGRFTISRDNAKNTVYLQMNSLKPEDTAVYYCAADIARSVRFYYWGQGTQVTVSS”: the “polyreactivity (PSR sort gate)” value is reported as “low polyreactivity”. Consider “QVQLVESGGGLVKAGGSLRLSCAASGSTNDRYAMGLYRQAPGKEREFVAAITKRGGSTYYADSVKGRFTISRDNAKITVYLQMNSLKPEDTAVYYCGARYGRGSAYTEYEYWGQGTQVTVSS”, for which the “polyreactivity (PSR sort gate)” value is reported as “high polyreactivity”. With “QVQLVESGGGLVKAGGSLRLSCADSGRTFYINAMGWYRQAPGKERELVAAISNYGSSTYYADTVKGRFTISRDNAKYTVYLLMISLKPVDSAVYYCAASYGYGGDYDYWGQGTQGTVSS” the entry was “high polyreactivity”. With “QVQLVESGGGLVKAGGSLRLSCGASGSIIVRYAMGWYRQAPGKERELVASISKRGGSTYYADSVKGRFTISRDNAKNTVYLQMNSLKPEDTEVYYCAAVCYYLVKFDYWGLGTQVTVSS” the entry was “high polyreactivity”; with “QVQLVESGGGLVKAGGSLRLSSAATGSTFWEYVMGWYRQPPGKERELVAAITTNDDSTYYADSVKGRFTISRDNAKKTVYLQMNSLKPEDTAVYYCNADQITGQFDYWGQGTQVTVSS”, “low polyreactivity”; with “QVQLVESGGGLVKAGVSLRLSCAASGSIFVGYAMGWYRQAPGKERELVAAIRSGGSTKYADSVKGRFTISRDNAKNTVYLQMNSLKPEDTAVYYCNVEVHPYYWVDNFHRYPVLHNYWGQGTQVTVSS”, “low polyreactivity”.

As to “QVQLVESGGGLVKAGVSLRLSSDASGRTFALYAMGWYRQAPGKERELVASIRGGGGTNYADSVKGRFTISRDNAKNTVYLQMNSLKPEDTAVYYCAARGYGYRGYYYWGQGTQVTVSS”, the “polyreactivity (PSR sort gate)” value is reported as “high polyreactivity”.

Consider “QVQLVESGGGLVLAGGRLRLSCAASGRNFYGYAMGWYRQAPGKERELVAAISYGGGSTYYADSVKGRFTISRDNAKKTVYLQMNSLKPEDTAVYYCNDFSAYMGQYGYWGQGTQVTVSS”, for which the “polyreactivity (PSR sort gate)” value is recorded as “high polyreactivity”. For “QVQLVESGGGLVLAGGRLRLSCAASGRTFFDYTMGWYSQAPGKEREFVARISSRTGRTYYADSVKGRFTISRDNEKNTDDLQMNSLKPDDTAVYYCNAVSQYSAFDYWGQGTQVTVSS”, the “polyreactivity (PSR sort gate)” value was “high polyreactivity”. For “QVQLVESGGGLVLAGGRLRLSCADYRSIFAGYAMGWYRQAPGKERELVAAISSSGGRTYYADSVKGRFTISRDNAKNTVYLQMNSLKPEDTAVYYCAVSTYEEEYWGQGTQVTVSS” the value was “high polyreactivity”; for “QVQLVESGGGLVLAGGSLLLSCAAAGSTFSQNAMGWYRQAPGKERELVAAITSGGITYYADSVKGRFTISRDNAKNSVYLQMNSLKPEDTAVYYCNADPIVSPYRLWTVTYYYWGQGTQVTVSS”, “low polyreactivity”.

As for “QVQLVESGGGLVLAGGSLRLRCAASGSNFYVNAMGWYRQAPWKEMELVAAISRRGGSTYYADSVKGRFTISRDNAKNTVYLQMNSLKPEDTAVYYCNKAMRGQAPSGPEYDYWGQGTQVTVSS”, the “polyreactivity (PSR sort gate)” value is “high polyreactivity”. For “QVQLVESGGGLVLAGGSLRLSCAASGFTFLDNAMGWYRQAPGKERELVAAISGIGGSTSYADSVKGRFTISRDNAKNTVYLQMNSLKPEDTAVYYCATRLYKWSFTPKFEMDHWGQGTQVTVSS” the value was “low polyreactivity”; for “QVQLVESGGGLVLAGGSLRLSCAASGITFKWYAMGWYRQAPGKERELVAAITSGGGTNYADSVKGRFTISRDNAKNTVYLQMNSLKPEDTAVYYCAARFYQLPWRRYDYWGQGTQVTVSS”, “high polyreactivity”. Regarding “QVQLVESGGGLVLAGGSLRLSCAASGNTFRYYAMGWYRQAPGKERELVADITIGGSTYYADSVKGRFTISRDNAKNTVYLQMNSLKPEDTAVYYCATDPDWGYYDAPYGYWGQGTQVTVSS”, the “polyreactivity (PSR sort gate)” value was “low polyreactivity”. With “QVQLVESGGGLVLAGGSLRLSCAASGRIFTSARGWYRQAPGKERELVAAISSSGGRTYYADSVKGRFTISRDNAKNTVYLQMNSLKPEDTAVYYCNTRPGSVFRAGGDYWGQGTQVTVSS” the entry was “high polyreactivity”. For “QVQLVESGGGLVLAGGSLRLSCAASGSTFFTNVMGWNRQAPGKERELVASITSGGSTNYADSVKGRFTITRDNAQNTVYLQMNSLKPEDTAVYYCAAVTRTITIYELDSWGQGTQVTVSS” the value was “low polyreactivity”; for “QVQLVESGGGLVLAGGSLSLTCAASGRTCWYYTMGWYRHAPGKARELVAAISSGGRTNYADSVKGRFTISRDNATNTVFLQMNSLKPEDTAVYYCATSRYYKYVERDYWGQGTQVTVSS”, “high polyreactivity”; for “QVQLVESGGGLVLAGRSLRLICAASGSIFVYNAMGWYRQAPGKERELVAAISWSGGRTYYADSVKGRFTISRDNAKNTVYLQMNSLKPEDTAVYYCAALYTLRGYYYGTEYDYWGQGTQVTVSS”, “high polyreactivity”. Take “QVQLVESGGGLVPAGGSLLLSCAASGRTIYSYGMGWYRQAPGKERELVASISSSTGSTYYADSVKGRFTISRDNAKNTVYLQMNSLKPEDTAVYYCAKRYSWTRRYDYWGQGTQVTVSS”: the “polyreactivity (PSR sort gate)” value was “high polyreactivity”. With “QVQLVESGGGLVPAGGSLPLSCAASGSTFSGHTMGWYRQAPGQDWELVADINWSSGSTYYADSVKGRFTISRDNAKNNVYLQMHSLKPEDTALLYCAAVEPFSDFDYWGQGTQVTLSS”, the “polyreactivity (PSR sort gate)” value is on record as “low polyreactivity”.

Consider “QVQLVESGGGLVPAGGSLRLSCAASGFIFQWYAMGWYRQAPGKERELVAAISSSGGSTYYADSVKGRFTISRDNAKNTVYLQMNSLKPEDTAVYYCAAVWASYPYRGVDYWGQGTQVTVSS”, for which the “polyreactivity (PSR sort gate)” value was “high polyreactivity”. Regarding “QVQLVESGGGLVPAGGSLRLSCAASGRIFWSNAMGWYRQAPGKERELVAAITWRGGSTYADSVKGRFTISRDNAKNTVYLQMNSLKPEDTAVFYCAASPSGWRYDYWGQGTQVTVSS”, the “polyreactivity (PSR sort gate)” value is given as “high polyreactivity”. For “QVQLVESGGGLVPAGGSLRLSCAASGRIITINAIGWYRKAPGKERELVAAISNSGGRTYADSVKGRFTISRDNAKNTVYLQMNSLKPEDTAVYYCAKRYRFHFWGQGTQVTVSS” the value was “low polyreactivity”; for “QVQLVESGGGLVPAGGSLRLSCAASGRTFAGNAMGWYRPAPGTERELVAVISRGGSTYYADSVKGRFTISRDNAKNTVYLQMNSLKPEDTAVYYCAARLRTTSVRGRYDYWGQGTQVTVSS”, “high polyreactivity”. As to “QVQLVESGGGLVPAGGSLRLSCAASGSIFKINAMGWYRQAPGKERELVATITWSTGTTYYADSVKGRFTISRDNAKNTVYLQMNSLKPEDTAVYYCATDGDSTKLDYWGQGTQVTVSS”, the “polyreactivity (PSR sort gate)” value is given as “low polyreactivity”. With “QVQLVESGGGLVPAGGSLRLSCAASGSIFVGYAMGWYRQAPGKERELVADITVGGGSTFYADSVKGRFTISRDNAKNTVYLQMTSLKPEDTAVYYCAKYAGVYEYDYWGQGTQVTVSS” the entry was “low polyreactivity”; with “QVQLVESGGGLVPAGGSLRLSCAASGSTFVGNAMGWYRQAPGKERELVAAISSGGSTNYADSVKGRFTISRDNAKNTVYLQMNSLKPEDTAVYYCNAVYFYWLYGFSYFATGITYDYWGQGTQVTVSS”, “high polyreactivity”. With “QVQLVESGGGLVPAGGSLRLSCAASGSTFVRYVMGWYRQAPGKERELVAAISRRGGSTYYADSVKGRCTISRDIAKNTVYLQMNSLKPEDTAVYYCADSRGTRTTGYSSYDRFGYWGQGTQVTVSS” the entry was “high polyreactivity”; with “QVQLVESGGGLVPAGGSLRLSCAASGSTGFNAMGWYRQAPGKERELVAAINYSDGSTYYADSVKGRFTISRDNAKNTVYLQMNSLKPEDTAVYYCNAGSSKDDSYYSYGYWGQGTQVTVSS”, “low polyreactivity”. For “QVQLVESGGGLVPAGGSLRLSCPAGGFIFGSNVMGWYRQAPGKEREFVAAITYGGVSTYYADSVKGRFTISRDNAKNTVYLQMNSLKPEDTAVYYCNTDRGKRLGKQASSKRYDYWGQGTQVTVSS” the value was “high polyreactivity”.

In the case of “QVQLVESGGGLVQAAGSLRISCAASGLIFGWNAMGWYRQAPGKERELVAAITSGGSTYYADSVKGRFTISRDNAKNTVYLQMNSLKPEDTAVYYCAAVYVLGKTGRVYGKYGYWGQGTQVTVSS”, the “polyreactivity (PSR sort gate)” value is “high polyreactivity”. For “QVQLVESGGGLVQAAGSLRISCAASGLIFNYYAMGWYRQAPGKERELVAAISKDGGSTYYADSVKGRFTISRDNAKNTVYLQMNSLKPEDTADFYCAARTFRISRMDYRGQGTQVTVSS”, the “polyreactivity (PSR sort gate)” value is recorded as “high polyreactivity”.

Regarding “QVQLVESGGGLVQAAGSLRLICAASGSTFEGNVMGWYRPAPGKERELVAAMSVRGGSTYYADSVKGRFTISRDNAKNTVYLQMNSLKQEDTEDYYCAKKYYRPFWEGDYWGQGTQVTVSS”, the “polyreactivity (PSR sort gate)” value is reported as “low polyreactivity”. For the sequence “QVQLVESGGGLVQAAGSLRLSCAASGFIFIYNAMGWYRQAPGKERELVAAITGSDGGTFYADSVKGRFTFSRDYAKNTVYLQINSLKPEDTAVYYCHADNGSRQSRDGYESWGQGTQVTVSS”, the “polyreactivity (PSR sort gate)” value is “low polyreactivity”. For “QVQLVESGGGLVQAAGSLRLSCAASGFIFLVYSMGWSRQAPGKARELVAAISASGGRTYYADSVKGRFTISRDNAKNTVYLQMNSLKPEDTAVYYCARLLPTPGKPILDYWGQGTQVTVSS” the value was “low polyreactivity”; for “QVQLVESGGGLVQAAGSLRLSCAASGFTFEKYVMGRYRQAPGKEREFVAAITRSGGRTYYADSVKGRFTISRDNAKNTVYLQMNSLKPEYTAVYYCAAAFSRSDTGGGSWGQGTQVTVSS”, “high polyreactivity”; for “QVQLVESGGGLVQAAGSLRLSCAASGFTFWLYAMGWYRQAPGSEREMVAAIRRGGGTNYADSVKGRFTISRDNAKNTVYLQMNSLKPEDTAVYYCAAAVLSYRHAHAGYYYAKGDYWGQGTQVTVSS”, “high polyreactivity”. For “QVQLVESGGGLVQAAGSLRLSCAASGITLYWYAMGWSRQAPGKERELVATISRRGGTTYYADSVKGRFTISRDNAKNTVYLQMNSLKPEDTAVYYCAKAPDTQTSWSRQEGNYWGQGTQVTVSS” the value was “low polyreactivity”; for “QVQLVESGGGLVQAAGSLRLSCAASGLTFWKYTMGWNRQAPGKEWELVAAISISGTNTYYADSVKGRFTISRDNAKNTVYLQLNSLKPEDTAVYYCAAVRGYPPTNYYYWGPGTQVTVSS”, “high polyreactivity”; for “QVQLVESGGGLVQAAGSLRLSCAASGRIFTPYAMGWYRQAPGKERELVAVIRDGSTYYADSVKGRFTISRDNAKNTVYLQMNSLKPEDTAVYYCRYDIWVWWSGAYDYWGLGTQVTVSS”, “low polyreactivity”.

The values are drawn from the nanobody polyreactivity screen of Harvey et al. (2022).
